Source: patent publication US20040077531A1, “Use of galanin-like peptide” (priority 2001, published 2004)

T1: pig-type ligand peptide (1-60) (SEQ ID NO: 31) (Sus scrofa, UniProt Q9TT95)
T1 construct: made in house
T1 sequence (Q9TT95 23-82): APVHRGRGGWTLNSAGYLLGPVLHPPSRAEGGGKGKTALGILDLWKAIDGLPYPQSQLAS

T2: rat-type galanin (SEQ ID NO: 61) (Rattus norvegicus, UniProt P10683)
T2 sequence (P10683 33-61 limits assumed): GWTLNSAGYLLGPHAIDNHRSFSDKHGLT

B1: 1 (protein)
chain: MELAPVNLSEGNGSDPEPPAEPRPLFGIGVENFITLVVFGLIFAMGVLGNSLVITVLARSKPGKPRSTTNLFILNLSIADLAYLLFCIPFQATVYALPTWVLGAFICKFIHYFFTVSMLVSIFTLAAMSVDRYVAIVHSRRSSSLRVSRNALLGVGFIWALSIAMASPVAYYQRLFHRDSNQTFCWEHWPNQLHKKAYVVCTFVFGYLLPLLLICFCYAKVLNHLHKKLKNMSKKSEASKKKTAQTVLVVVVVFGISWLPHHVIHLWAEFGAFPLTPASFFFRITAHCLAYSNSSVNPIIYAFLSENFRKAYKQVFKCRVCNESPHGDAKEKNRIDTPPSTNCTHV
modifications: Rat
B2: 4 (protein)
chain: B1 chain
modifications: Rat
B3: 8 (protein)
chain: MPRGCALLLASLLLASALSATLGLGSPVKEKRGWTLNSAGYLLGPHAIDNHRSFHDKYGLAGKRELEPEDEARPGGFDRLQSEDKAIRTIMEFLAFLHLKEAGALGRLPGLPSAASSEDAGQS
modifications: Porcine
B4: 3 (protein)
chain: MADIQNISLDSPGSVGAVAVPVIFALIFLLGMVGNGLVLAVLLQPGPSAWQEPSSTTDLFILNLAVADLCFILCCVPFQAAIYTLDAWLFGAFVCKTVHLLIYLTMYASSFTLAAVSLDRYLAVRHPLRSRALRTPRNARAAVGLVWLLAALFSAPYLSYYGTVRYGALELCVPAWEDARRRALDVATFAAGYLLPVAVVSLAYGRTLCFLWAAVGPAGAAAAEARRRATGRAGRAMLAVAALYALCWGPHHALILCFWYGRFAFSPATYACRLASHCLAYANSCLNPLVYSLASRHFRARFRRLWPCGRRRHRHHHRAHRALRRVQPASSGPAGYPGDARPRGWSMEPRGDALRGGGETRLTLSPRGPQ
modifications: Rat
B5: 6 (protein)
chain: B4 chain
modifications: Rat
B6: 2 (protein)
chain: MNGSGSQGAENTSQEGGSGGWQPEAVLVPLFFALIFLVGTVGNALVLAVLLRGGQAVSTTNLFILNLGVADLCFILCCVPFQATIYTLDDWVFGSLLCKAVHFLIFLTMHASSFTLAAVSLDRYLAIRYPLHSRELRTPRNALAAIGLIWGLALLFSGPYLSYYRQSQLANLTVCHPAWSAPRRRAMDLCTFVFSYLLPVLVLSLTYARTLRYLWRTVDPVTAGSGSQRAKRKVTRMIIIVAVLFCLCWMPHHALILCVWFGRFPLTRATYALRILSHLVSYANSCVNPIVYALVSKHFRKGFRKICAGLLRPAPRRASGRVSILAPGNHSGSMLEQESTDLTQVSEAAGPLVPPPALPNCTASSRTLDPAC
modifications: Rat
B7: 5 (protein)
chain: B6 chain
modifications: Rat

Molecular target: T1, pig-type ligand peptide (1-60) (SEQ ID NO: 31)
Test: Competitive EIA of monoclonal antibodies against pig-type ligand peptide
Type: binding
Settings: B/B0 in the presence of 100 nM immunogen; HRP-labeled SEQ ID NO: 44

Molecule	Reactivity Pig Ligand (SEQ ID NO: 31)
B1	− (0.80 ≦ (B/B0))
B2	+ ((B/B0) < 0.50)
B3	− (0.80 ≦ (B/B0))
B4	± (0.50 ≦ (B/B0) < 0.80)
B5	+ ((B/B0) < 0.50)
B6	+ ((B/B0) < 0.50)
B7	± (0.50 ≦ (B/B0) < 0.80)

Molecular target: T2, rat-type galanin (SEQ ID NO: 61)
Test: Competitive EIA of monoclonal antibodies against rat galanin
Type: binding
Settings: B/B0 in the presence of 100 nM immunogen; HRP-labeled SEQ ID NO: 44

Molecule	Reactivity Rat Galanin (SEQ ID NO: 61)
B1	− (0.80 ≦ (B/B0))
B2	− (0.80 ≦ (B/B0))
B3	− (0.80 ≦ (B/B0))
B4	− (0.80 ≦ (B/B0))
B5	− (0.80 ≦ (B/B0))
B6	− (0.80 ≦ (B/B0))
B7	− (0.80 ≦ (B/B0))
